Consider 72 sequences from the supplement of paper PMC10567573.

The data set can be described thus: protein stability index of a GFP-peptide fusion (GPS, HEK-293T) (PSI 1-6); higher = more stable.
The mark [1] stands for this setting: treatment: DMSO, c terminus: a fixed tail appended.
Setting [2] is: treatment: MLN4924 1 uM, 8 h, c terminus: a fixed tail appended.
Where [3] appears, read: treatment: DMSO, c terminus: native.
Where [4] appears, read: treatment: MLN4924 1 uM, 8 h, c terminus: native.

± gives the standard deviation.
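Further: 24-mer peptide tiles fused after GFP, lentivirally expressed, FACS-sorted into six equal bins by GFP/DsRed ratio, decoded by Illumina sequencing, PSI is the read-weighted mean bin number.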

Take WTLEDEIHSPAHPEIEKADDHLQQ [ZNF649]: the protein stability index under setting [1] turned out to be 5.2 ± 0.34 and the protein stability index under setting [2] is 5.26 ± 0.3.
For DWFSGHLNFQIEHHLFPTMPRHNY [FADS1], the protein stability index reads like this: under setting [1], 2.15 ± 0.48; under setting [2], 2.07 ± 0.25.
Regarding DYEAGTLSFYNVTDRSHIYTFTDT [TRIM39], the protein stability index reads like this: under setting [1], 2.58 ± 0.38; under setting [2], 2.69 ± 0.28.
On to IDKEIELHRILHHKHVVQFYHYFE [PLK2], for which the protein stability index is, setting by setting: under setting [1], 2.12 ± 0.29; under setting [2], 2.18 ± 0.38.
Consider NYRIAGARLMRSNYPPPLSSAALR [C6orf223], for which the protein stability index was found to be 3.16 ± 0.41 under setting [1] and 3.2 ± 0.3 under setting [2].
Taken in the same sequence, the figures for QSPTLEFLLRNSQRTVGQLMELCR [EDARADD] were 2.49 ± 0.21 and 2.56 ± 0.26.
Taken in the same sequence, the figures for WNVAAPLYLKQSDLASAAAKQIME [INTS4] were 2.67 ± 0.13 and 2.81 ± 0.05.
For FLCLQYRLRGKLRAEIENLHRTFD [MOG], the protein stability index by setting is: under setting [1], 2.41 ± 0.57; under setting [2], 2.18 ± 0.39.
LAQFPNTLLGNPKKRMRYFDPLRN [KCNA1]: the protein stability index is, setting by setting: under setting [1], 2.45 ± 0.12; under setting [2], 2.48 ± 0.12.
For TSRTQVYKPPALKKSNSPGTASSG [ZC2HC1A], the protein stability index under setting [1] amounted to 4.42 ± 0.15 and the protein stability index under setting [2] was 4.46 ± 0.17.
Regarding KARVKPPEGYDVVAVYPNAKVELV [PDLIM4], the protein stability index is, setting by setting: under setting [1], 3.02 ± 0.18; under setting [2], 3.31 ± 0.28.
On to GGGLTGVSGSHFVGVDGVRAFLQT [PCDHGA10], for which the protein stability index was 2.82 ± 0.29 under setting [1] and 2.83 ± 0.32 under setting [2].
Take AEDAVYGRDGYDYDGYRLRVEFPR [SRSF1]: the protein stability index under setting [1] is 3.37 ± 0.2 and the protein stability index under setting [2] was 3.44 ± 0.37.
Consider QPLEVKNNSNLQRMGSSESTDSGF [CDC25A], for which the protein stability index by setting is: under setting [1], 5.28 ± 0.23; under setting [2], 5.06 ± 0.49.
Consider TESEAHYSSQLSQVQSLITNVESQ [KRT34], for which the protein stability index under setting [1] was 4.83 ± 0.31 and the protein stability index under setting [2] is 4.78 ± 0.21.
With FLGGVVRMTISLTVILIESTNEIT [CLCN6], the protein stability index came out at 3.41 ± 0.43 under setting [1] and 3.42 ± 0.19 under setting [2].
For the sequence NPNFEVAESDYSNNIMKCRSRYDG [LOXL2], the protein stability index by setting is: under setting [1], 4.42 ± 0.24; under setting [2], 4.42 ± 0.33.
In the case of LEYRFYEQLGSGDGIPQVYYFGPC [CSNK1G3], the protein stability index reads like this: under setting [1], 2.19 ± 0.29; under setting [2], 2.13 ± 0.2.
In the case of PSLPAAGEQDCCGERVVINISGLR [KCNA3], the protein stability index was 3.79 ± 0.36 under setting [1] and 3.76 ± 0.29 under setting [2].
As to KRASAPTFDNDYSLSELLSQLDSG [RIPK4], the protein stability index is, setting by setting: under setting [1], 3.75 ± 0.37; under setting [2], 3.56 ± 0.15.
NSPSSPSSSAASSSSPSSSSAVV [RHOBTB2]: the protein stability index was found to be 5.31 ± 0.12 under setting [3] and 5.456 ± 0.023 under setting [4].
As to AKYCGHLYGLGSGSSYVQNGTGNA [CNOT7], the protein stability index reads like this: under setting [1], 2.8 ± 0.3; under setting [2], 2.78 ± 0.28.
In the case of LNGTKVAEGHKASFCLEDTECEGD [LOXL2], the protein stability index runs as follows: under setting [1], 5.41 ± 0.33; under setting [2], 5.59 ± 0.12.
Taken in the same sequence, the figures for ELFEDIVAREYYSEADASHCIQQI [CAMK2B] were 2.8 ± 0.34 and 3.03 ± 0.25.
Turning to VEFDVLPAFDALGQLTGGYKPNPQ [OAS1], the protein stability index is 2.85 ± 0.27 under setting [1] and 2.9 ± 0.21 under setting [2].
For the sequence THPVTNTTEKQRLVKKLQDSVLER [GOLPH3L], the protein stability index by setting is: under setting [1], 4.13 ± 0.2; under setting [2], 4.39 ± 0.13.
Sequence LHAWEMKPYAVMVFQTEQKNLFRL [N4BP2L1] had a protein stability index under setting [1] of 2.44 ± 0.61 and a protein stability index under setting [2] of 2.41 ± 0.41.
As to GEPQQDCCVKTELLGEETPMAADE [EHMT1], the protein stability index by setting is: under setting [1], 5.55 ± 0.25; under setting [2], 5.53 ± 0.14.
Taken in the same sequence, the figures for VPSEEPQESDQTEEHESGIEQFSE [IQUB] were 5.69 ± 0.13 and 5.57 ± 0.38.
In the case of AGEGLVRSANGFPYREDEEGAFGE [MAP2], the protein stability index turned out to be 5.27 ± 0.18 under setting [1] and 5.24 ± 0.38 under setting [2].
In the case of AHSSDVLENVFSSLTDDKYDVAMN [GOLPH3L], the protein stability index is 4.74 ± 0.21 under setting [1] and 4.7 ± 0.3 under setting [2].
Regarding ICQGDGSSCTHVTGNYRKGNAHLG [ADAMTSL2], the protein stability index reads like this: under setting [1], 3.74 ± 0.33; under setting [2], 3.92 ± 0.26.
For ITTIGYGHAAPGTDAGKAFCMFYA [KCNK9], the protein stability index is 2.9 ± 0.49 under setting [1] and 2.8 ± 0.56 under setting [2].
Turning to TQHFVQENYLEYRQVPGSDPACYE [MAGEA3], the protein stability index reads like this: under setting [1], 4.26 ± 0.081; under setting [2], 4.34 ± 0.12.
Take DFGFAILGFAYAKEDKIMLDDRKN [MIA2]: the protein stability index runs as follows: under setting [1], 2.05 ± 0.26; under setting [2], 2.16 ± 0.48.
Taken in the same sequence, the figures for TTGIVETHFTFKDLHFKMFDVGGQ [GNAI1] were 2.08 ± 0.35 and 2.27 ± 0.14.
Turning to TVEPGKLDVGATEGQDLQHISNQK [DRICH1], the protein stability index runs as follows: under setting [1], 5.43 ± 0.23; under setting [2], 5.4 ± 0.4.
Take STVGSAISRKLGDMRNSATFKSFE [TPD52L2]: the protein stability index under setting [1] worked out at 3.28 ± 0.2 and the protein stability index under setting [2] turned out to be 3.28 ± 0.31.
SDLGLLRLCTWLLALSPDLSLSNA [FANCE]: the protein stability index was 3.08 ± 0.33 under setting [1] and 3.17 ± 0.47 under setting [2].
On to RLPTDSHFPYDLHLRSQSLTMQDE [NEUROD6], for which the protein stability index reads like this: under setting [1], 4.32 ± 0.14; under setting [2], 4.34 ± 0.16.
DMRDPTYRPLKQELQGLDYCKPTR [SPSB1]: the protein stability index was 3.76 ± 0.59 under setting [1] and 4.04 ± 0.55 under setting [2].
Regarding ENSVEFEACLVAQCDALIDALNRR [TRIM9], the protein stability index runs as follows: under setting [1], 2.88 ± 0.24; under setting [2], 3.11 ± 0.37.
In turn, NVEMDAAPGVDLSRILNEMRDQYE [KRT16] yielded a protein stability index under setting [1] of 4.34 ± 0.18 and a protein stability index under setting [2] of 4.46 ± 0.37.
In the case of TLGGELGALEALELSPPLSPASHV [FOXJ1], the protein stability index by setting is: under setting [1], 4.12 ± 0.3; under setting [2], 4.26 ± 0.098.
For the sequence TLSTIEFQREALENSHTNTEVLRN [CHMP4C], the protein stability index runs as follows: under setting [1], 4.66 ± 0.14; under setting [2], 4.92 ± 0.19.
For the sequence EPELSPAYLISEAMRRSRMSLYC [GFOD1], the protein stability index was 2.3 ± 0.81 under setting [3] and 2.27 ± 0.3 under setting [4].
Regarding MAAKSQPNIPKAKSLDGVTNDRTA [DHCR7], the protein stability index under setting [1] worked out at 5 ± 0.15 and the protein stability index under setting [2] is 5.04 ± 0.16.
For LEEEEEEEEEAEDEEVVATAGDRL [IRX6], the protein stability index was found to be 5.71 ± 0.27 under setting [1] and 5.46 ± 0.32 under setting [2].
Take TEQLIEAVNNGDFEAYAKICDPGL [CAMK2B]: the protein stability index under setting [1] was 4.19 ± 0.22 and the protein stability index under setting [2] is 4.19 ± 0.23.
On to LEVMEEEELANLRASQREYEELRN [RSPH3], for which the protein stability index worked out at 5.22 ± 0.43 under setting [1] and 5.09 ± 0.18 under setting [2].
Taken in the same sequence, the figures for ELDEEEVKAATTEPTEVEEVVPAL [BCL2L13] were 5.44 ± 0.28 and 5.54 ± 0.13.
Taken in the same sequence, the figures for QNSRNKRAVQGPEETVTQDCLQLI [TNFSF13B] were 4.55 ± 0.057 and 4.68 ± 0.12.
As for VSSSQDGKVIVWDSFTTNKEHAVT [GNB5], the protein stability index runs as follows: under setting [1], 3.51 ± 0.23; under setting [2], 3.67 ± 0.38.
In the case of TRYHLQQARRQQVKQYLSTTLGPK [TFE3], the protein stability index was found to be 3.21 ± 0.15 under setting [1] and 3.29 ± 0.2 under setting [2].
Taken in the same sequence, the figures for GTSALWRHLRSAHRRELESSGAGS [ZBED3] were 3.78 ± 0.57 and 4.1 ± 0.25.
Taken in the same sequence, the figures for EKEIEEATKKLGFKHPVIGVHVRR [FUT8] were 3.99 ± 0.29 and 3.9 ± 0.51.
On to VLEIEQSMNRVKNISDADVHNAMD [FEM1B], for which the protein stability index is 4.13 ± 0.14 under setting [1] and 4.32 ± 0.23 under setting [2].
For SGYMEGYYTFHFLYFKDKIFNVAI [FBXO3], the protein stability index under setting [1] amounted to 3.36 ± 0.48 and the protein stability index under setting [2] came to 2.75 ± 0.15.
Taken in the same sequence, the figures for KITDFQLHASTVKRYGLGAHRGRL [CPXM2] were 3.133 ± 0.018 and 3.22 ± 0.53.
For AMEKFREDEGFLREEERPLPRRDF [KCNA3], the protein stability index runs as follows: under setting [1], 4.74 ± 0.23; under setting [2], 4.74 ± 0.17.
For the sequence EPFVLPASSVESTLPVLEASSWKK [FBXO34], the protein stability index turned out to be 4.57 ± 0.22 under setting [1] and 4.87 ± 0.2 under setting [2].
Taken in the same sequence, the figures for RAEQDSEVGPQEINKEELEGNSMR [GMCL1] were 5.6 ± 0.26 and 5.63 ± 0.14.
LFSNSDHQRDGTLGALHTSSKPTA [SASS6]: the protein stability index was 4.36 ± 0.27 under setting [1] and 4.51 ± 0.065 under setting [2].
As for QTEKLDTNITEVDAASVYTLPAGA [CASP6], the protein stability index is, setting by setting: under setting [1], 5.02 ± 0.2; under setting [2], 4.81 ± 0.12.
With TKEVMNKYKVHGKEILRTLQDVFC [PPEF2], the protein stability index is 2.63 ± 0.12 under setting [1] and 2.65 ± 0.34 under setting [2].
As to HNLIEQVSLGLGQPWHAVMDIESL [FBXO33], the protein stability index runs as follows: under setting [1], 2.59 ± 0.52; under setting [2], 2.48 ± 0.16.
With KVLTEPEVRYYLRQIVSGLKYLHE [PLK2], the protein stability index worked out at 3.19 ± 0.29 under setting [1] and 2.42 ± 0.33 under setting [2].
In the case of SHLVIHNLFEGMIWFIVPISCVIC [CDS2], the protein stability index reads like this: under setting [1], 3.09 ± 0.45; under setting [2], 2.81 ± 0.2.
Taken in the same sequence, the figures for ESRMRIESLSSQLSNLQKESRACL [LMNB1] were 3.63 ± 0.34 and 3.94 ± 0.12.
With TLRTCYAANPRPDALMKEQLVEMT [ISL2], the protein stability index is 3.53 ± 0.22 under setting [1] and 3.52 ± 0.28 under setting [2].
Turning to TTLGPKLASQALTPPPGPASAQPL [TFE3], the protein stability index worked out at 4.4 ± 0.48 under setting [1] and 4.4 ± 0.18 under setting [2].
Regarding PGPMDWVPRYTGVAPQDQCKLTCQ [ADAMTS4], the protein stability index by setting is: under setting [1], 3.77 ± 0.35; under setting [2], 4.14 ± 0.36.
